Where no end group is shown, it is not given here.
B1: Bag-1: cochaperone Bag-1, HA-tagged (pcDNA3.1-HA-Bag-1), or endogenous (protein)
chain: TPLSALGIQDGCRVMLIGKKNSPQEEVELKKLKHLEKSVEKIADQLEELNKELTGIQQGFLPKDLQAE
modifications: left off: HA, end not stated, kept
notes: cochaperone Bag-1, HA-tagged (pcDNA3.1-HA-Bag-1), or endogenous
B2: Bag-1 peptide: internal sequence of 68 amino acids of Bag-1 (Bag1-L 202–269), HA-tagged, expressed from pcDNA3 (peptide)
chain: B1 chain
modifications: also: HA tag, end not given here

Tested on: SBD of GRP78/BiP
Assay: GST pull-down with substrate binding domain (SBD) of GRP78/BiP
Settings: 10 µg GST-GRP78(SBD), 500 µg (N-terminal peptide: 100 µg) lysate of HEK-293 cells expressing HA-tagged construct
Description: Expression of GST fusion proteins for GST-pull-down experiments were performed essentially as described previously.
Figure 1 Bag-1 proteins interact with the molecular chaperone GRP78/BiP. A. The Bag-1 family of proteins binds GRP78/BiP. GST pull-down assay was performed incubating 5 µg each of GST-fused Bag-1 proteins with 400 µg of 22Rv.1 cell lysate. Western blotting with a specific antibodiy against GRP78/BiP was used to detect the binding and an anti-GST antibody was used to determine the amount of bacterially purified protein employed in the assay. B. Bag-1 and GRP78 interact in vivo. GRP78 was immunoprecipitated with an anti-GRP78/BiP antibody or IgG as control in 22Rv.1 cells. Western blotting with an anti-Bag-1 and anti-GRP78 antibody was performed to determine GRP78-Bag-1 interaction. C. Bag-1 and GRP78/BiP show a perinuclear colocalization. Confocal microscopic analyses were carried out in 22Rv.1 cells that have been paraformaldehyde-fixed and stained with a Bag-1 antibody to detect Bag-1 (green channel) and a GRP78/BiP specific antibody to detect GRP78/BiP (red channel). The orange staining in the merge of the two channels indicates the degree of co-localization of the two proteins. All images (40X) were acquired with a Leica TCS SPE confocal microscope (Leica Microsystems; Scale bars indicate 25 µm). D. Diagrammatic representation of the domains of GRP78. E. Bag-1 binds to multiple sites on GRP78. GST-pull down assay performed incubating 500 µg lysate of HEK-293 cells transfected with an HA-tagged Bag-1 and 10 µg GST-fused GRP78 full length and its ATPase and substrate binding domain (SBD). Western blot analysis was carried out using an HA antibody to detect the Bag-1-tagged protein.
Figure 2 Identification of Bag-1 peptide interfering with the action of GRP78/BiP. […] Depicted in blue and red are the ubiquitin-like domain and the BAG domain respectively. B. Identification of the Bag-1 peptide binding to GRP78/BiP. GST-pull down assay performed incubating 500 µg lysates from HEK-293 cells transfected with the indicated Bag-1 constructs and 10 µg of GST-GRP78(SBD) or GST as control. Western blot analysis with an HA antibody to detected the Bag-1 mutants is shown. […] C. The Bag-1 68 amino acid peptide binds in vivo to GRP78. HEK 293 cells were co-transfected with pcDNA-HA-tagged Bag-1 peptide. […] Thereafter luciferase activity was measured. Results are expressed as percentage of refolding activity relative to non-heat-shocked cells and presented as bar charts of the average of three independent experiments ± SEM. *p<0.05. […]

Molecule	interaction with SBD of GRP78/BiP	interaction with SBD of GRP78/BiP (listed as 68 amino acid sequence)	interaction with SBD of GRP78/BiP (listed as full length 68 amino acid peptide)
N-terminal peptide: N-terminal 40 residues of the Bag-1 peptide (Bag-1L 202–241) (TPLSALGIQDGCRVMLIGKKNSPQEEVELKKLKHLEKSVE; not fully specified)	interacted preferentially with the SBD	–	–
B1	interacted not only with the full length GRP78/BiP but also with its ATPase and SBD	–	–
B2	–	required for binding the SBD of GRP78/BiP	interacted with both the SBD and ATPase binding domains of GRP78
